Target: rad51_yeast RAD51 (UniProt P25454)
Sequence (P25454 whole entry): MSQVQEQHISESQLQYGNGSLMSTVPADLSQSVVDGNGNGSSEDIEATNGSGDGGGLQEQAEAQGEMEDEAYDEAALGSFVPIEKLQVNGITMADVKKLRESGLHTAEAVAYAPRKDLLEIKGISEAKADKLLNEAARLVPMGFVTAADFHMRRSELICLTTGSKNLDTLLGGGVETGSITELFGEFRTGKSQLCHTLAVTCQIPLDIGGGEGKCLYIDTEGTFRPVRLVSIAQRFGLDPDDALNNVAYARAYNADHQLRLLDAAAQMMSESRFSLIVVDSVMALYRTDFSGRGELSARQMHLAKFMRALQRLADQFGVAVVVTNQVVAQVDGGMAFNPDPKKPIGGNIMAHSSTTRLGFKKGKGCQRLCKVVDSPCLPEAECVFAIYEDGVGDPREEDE

With “DNA repair and recombination protein RAD52 (Saccharomyces cerevisiae) (from UniProt P06778) K10R;K11R;K220R” the “effect of a mutation on the interaction” value was “decreasing interaction strength”.

— IntAct's records for PubMed 23624404
